The values that follow come from paper PMC3025952, “Characterization of a core fragment of the rhesus monkey TRIM5α protein” (BMC Biochemistry, 2011).

As usually defined, the stoichiometry N is a count of units in the complex or per binding partner.

Series [1] concerns the molecule itself. Nature of the series: SEC; Superdex 200 (10/30) column calibrated with globular molecular-weight markers, PBS; for LLER also with 25 μM ZnCl2 and DTT (profile not significantly affected). (In general: In gel filtration, larger molecules generally elute earlier.)
Series [2] concerns the molecule itself. Description: SEC-MALS; SEC-LS: about 300 μg LLER on Superose 6 HR 10/30 with in-line Dawn EOS light scattering, refractometer and UV detector.
Series [3] deals with the molecule itself. Description: single-particle cryo-electron microscopy; peak 1 and peak 2 gel-filtration fractions of LLER; peak 2 also incubated with an anti-His6 antibody to count the tags in a particle.

B1: BCCL2 protein, wild-type (B-box 2, coiled coil and linker 2 region of rhesus monkey TRIM5α), His6-tagged, from E. coli (domain or fragment)
chain: GSGLVPRGSASMSDSEVNQEAKPEVKLSPEEGQKVDHCARHGEKLLLFCQEDSKVICWLCERSQEHRGHHTFLMEEVAQEYHVKLQTALEMLRQKQQEAEKLEADIREEKASWKIQIDYDKTNVSADFEQLREILDWEESNELQNLEKEEEDILKSLTKSETEMVQQTQYMRELISELEHRLQGSMMDLLQGVDGIIKRIENMTLKKPKTFHKNQRRVFRAPDLKGMLDMFRELTDA
notes: vector-derived spacer between the His6 tag and E83 of TRIM5αrh; Predicted molecular weight with tag and spacer 29.026 kD; also called wild-type (wt); core fragment of TRIM5αrh; source: E. coli BL21(DE3)pLysS, purified (Ni-NTA, SEC, anion exchange); not shown: His6, N-terminal, kept
Turning to B1, the binding result in series [1] is “binds”.

B2: BCCL2 LLER protein (L105E, L106E, E120R, R121E), His6-tagged, from E. coli (domain or fragment, rhesus monkey)
chain: GSGLVPRGSASMSDSEVNQEAKPEVKLSPEEGQKVDHCARHGEKLEEFCQEDSKVICWLCRESQEHRGHHTFLMEEVAQEYHVKLQTALEMLRQKQQEAEKLEADIREEKASWKIQIDYDKTNVSADFEQLREILDWEESNELQNLEKEEEDILKSLTKSETEMVQQTQYMRELISELEHRLQGSMMDLLQGVDGIIKRIENMTLKKPKTFHKNQRRVFRAPDLKGMLDMFRELTDA
notes: vector-derived spacer between the His6 tag and E83 of TRIM5αrh; also called LLER variant; source: E. coli BL21(DE3)pLysS, purified (Ni-NTA, anion exchange, SEC); not shown: His6, N-terminal, kept
As for B2, the “stoichiometry N” value was 2 in series [2] and at least 2 in series [3].
